Measured values taken from patent publication US9987370B2, “Self-assembling drug amphiphiles and methods for synthesis and use” (priority 2012, dated 2018).
Side chains are listed from the residue outwards. Ends that are not written are not given here. Peptide text beside a SMILES is read from it. * marks the point of attachment. X1 = CC(=O)N[C@@H](CSSCCCC(=O)O[C@@H](C(=O)O[C@H]1C[C@@]2(O)[C@@H](OC(=O)c3ccccc3)[C@@H]3[C@]4(OC(C)=O)CO[C@@H]4C[C@H](O)[C@@]3(C)C(=O)[C@H](OC(C)=O)C(=C1C)C2(C)C)[C@@H](NC(=O)c1ccccc1)c1ccccc1)C(=O)*; Paclitaxel(2'-OCO(CH2)3S) = CC(=O)O[C@H]1C(=O)[C@@]2(C)[C@H]([C@H](OC(=O)c3ccccc3)[C@]3(O)C[C@H](OC(=O)[C@H](OC(=O)CCCS*)[C@@H](NC(=O)c4ccccc4)c4ccccc4)C(C)=C1C3(C)C)[C@]1(OC(C)=O)CO[C@@H]1C[C@@H]2O; buSS = disulfanylbutanoate linker

How the values were obtained:
[1] = test system: PXL-resistant KB-V1 cervical cancer cells; assay: Cytotoxicity study of dual drug amphiphiles by SRB; format: cell-based; details: KB-V1, 48 hours
Experimental: (§1) Both cell lines are sensitive to CPT. […] (n=3).
(§2) Cytotoxicity Study. The activity of the synthesized conjugates to prohibit proliferative ability was assessed through the determination of a dose-response relationship against PXL-sensitive and -resistant cervical cancer cell lines—KB-3-1 and KB-V1, respectively. Both cell lines were individually incubated for 48 hours with the conjugates alone or in combination, either individually to determine their sensitivity to the conjugates (FIGS. 46 a-b) and also as a co-culture to mimic a heterogeneous tumor (FIG. 46 c). […] This antagonistic behavior has been previously observed, and is suspected to arise from an up-regulation of anti-apoptosis genes on co-treatment with CPT that would inhibit the mechanism by which PXL exerts its cytotoxicity.

[2] = test system: PXL-sensitive KB-3-1 cervical cancer cells; assay: Cytotoxicity study of dual drug amphiphiles by SRB; format: cell-based; details: KB-3-1, 48 hours
Experimental: as §1, §2

[3] = Critical micellization concentration of CPT drug amphiphiles by a fluorescence method; format: physicochemical; details: 10 mM sodium phosphate
Experimental: FIGS. 5A-5C depicts the fluorometric determination of the CMC values for mCPT-buSS-Tau (a), dCPT-buSS-Tau (b) and qCPT-buSS-Tau (c) in 10 mM sodium phosphate.
The critical micellization concentrations of mCPT-buSS-Tau, dCPT-buSS-Tau and qCPT-buSS-Tau were determined to be 207 nM, 74 nM and 53 nM, respectively, by a fluorescence method (FIG. 5). These very low values are in the range of macromolecular amphiphiles and are an important property of these conjugates. A high value would lead to rapid dissociation of the nanostructure when diluted upon introduction into the bloodstream, whereas a low value would impart greater stability to the assembly during circulation.

[4] = test system: co-culture of KB-3-1 and KB-V1 cervical cancer cells; details: co-culture KB-3-1 and KB-V1, 48 hours
Experimental: Cell viability was determined by SRB assay after 48 hours incubation with the appropriate drug-containing media. […] Data are given as mean±s.d. (n=3).
Cell Culture. KB-3-1 and KB-V1 ovarian cancer cells were cultured in DMEM (Invitrogen) containing 10% fetal bovine serum (FBS, Invitrogen) and 1% of antibiotics (Invitrogen), and 1 μg/mL vinblastine was added for KB-V1 to maintain its multidrug resistance. The two cell types were incubated at 37° C. in an Oasis humidified incubator with a 5% CO2 atmosphere (Caron, Marietta, Ohio).
Cytotoxicity Protocol. KB-3-1, KB-V1 or their co-culture (1:1) were seeded onto 96-well plate (5×10^3 cells/well) and allowed to attach overnight. […] Medium containing the same concentration of PXL or/and CPT in the form of free drugs or conjugates (dCPT-Sup35 or dPXL-Sup35) were also used to incubate the cells, with non-treated cells (solvent only) as the control group. After 48 hours incubation, the cell viability was determined using the SRB method according to the manufacturer's protocol (TOX-6, Sigma, St. Louis, Mo.).

[5] = test system: human breast cancer MCF-7; format: cell-based
Experimental: (§3) To evaluate anti-tumor efficacy, the cytotoxicity of PXL-buSS-Tau towards human breast cancer MCF-7, non-small cell lung cancer A549, and human prostate cancer PC-3 FLU cell lines was determined (FIG. 33).

[6] = PXL release study in PBS buffer at 37° C.; format: physicochemical
Experimental: FIG. 32 depicts the PXL-buSS-Tau release curve in PBS buffer under 37° C.
PXL release studies were carried out at 100 μM and 5 μM concentrations in PBS buffer at 37° C. (FIG. 32). […] After 2 hrs, around 70% of the PXL-buSS-Tau was cleaved by glutathione at 5 μM while only 40% paclitaxel was released at 100 μM, again illustrating the protective effect that self-assembly into nanostructures has upon the biodegradable linker.

[7] = test system: human prostate cancer PC-3 FLU; assay: Cytotoxicity of PXL-buSS-Tau by SRB assay; format: cell-based; details: 48 hours
Experimental: as §3

[8] = test system: non-small cell lung cancer A549; format: cell-based, human
Experimental: as §3

## CC(=O)N[C@@H](CSSCCCC(=O)O[C@@H](C(=O)O[C@H]1C[C@@]2(O)[C@@H](OC(=O)c3ccccc3)[C@@H]3[C@]4(OC(C)=O)CO[C@@H]4C[C@H](O)[C@@]3(C)C(=O)[C@H](OC(C)=O)C(=C1C)C2(C)C)[C@@H](NC(=O)c1ccccc1)c1ccccc1)C(=O)NCCCC[C@H](NC(=O)[C@H](CSSCCCC(=O)O[C@@H](C(=O)O[C@H]1C[C@@]2(O)[C@@H](OC(=O)c3ccccc3)[C@@H]3[C@]4(OC(C)=O)CO[C@@H]4C[C@H](O)[C@@]3(C)C(=O)[C@H](OC(C)=O)C(=C1C)C2(C)C)[C@@H](NC(=O)c1ccccc1)c1ccccc1)NC(C)=O)C(=O)NCC(=O)N[C@@H](CC(N)=O)C(=O)N[C@@H](CC(N)=O)C(=O)N[C@@H](CCC(N)=O)C(=O)N[C@@H](CCC(N)=O)C(=O)N[C@@H](CC(N)=O)C(=O)N[C@@H](Cc1ccc(O)cc1)C(=O)N[C@@H](CCCCN)C(=O)N[C@@H](CCCCN)C(N)=O [dPXL-Sup35] (Ac-C(Paclitaxel(2'-OCO(CH2)3S))K(X1)GNNQQNYKK-NH2)
[1]
  sensitivity of cells / activity: no activity
[2]
  sensitivity of cells: nano-molar sensitivity

## CC(=O)O[C@H]1C(=O)[C@@]2(C)[C@H]([C@H](OC(=O)c3ccccc3)[C@]3(O)C[C@H](OC(=O)[C@H](O)[C@@H](NC(=O)c4ccccc4)c4ccccc4)C(C)=C1C3(C)C)[C@]1(OC(C)=O)CO[C@@H]1C[C@@H]2O [PXL, paclitaxel, reference compound]
[1]
  sensitivity of cells / activity: no activity

## mCPT-buSS-Tau: one camptothecin linked via disulfanylbutanoate (buSS) linker to cysteine-functionalized Tau peptide CGVQIVYKK (C([buSS-camptothecin])GVQIVYKK; not fully specified (C-terminus))
[3]
  critical micellization concentration: 207 nM

## CC[C@@]1(O)C(=O)OCc2c1cc1n(c2=O)Cc2cc3ccccc3nc2-1 [CPT, camptothecin]
[4]
  activity: moderate activity

## PXL-buSS-Tau (Ac-CGVQIVYKK; also: PXL-buSS conjugate, attachment site not given here)
[5]
  cytotoxic effect: strong cytotoxic effect
[6]; 5 μM, after 2 hrs, PBS, 37° C., glutathione
  PXL-buSS-Tau cleaved by glutathione: around 70%
[6]; 5 μM, presence of glutathione
  release at 5 μM compared with 100 μM: much faster release than that of 100 μM
[6]; 100 μM, after 30 minutes, presence of glutathione
  release of paclitaxel: Significant release of paclitaxel
[6]; 100 μM, after 2 hrs, PBS, 37° C., glutathione
  paclitaxel released: 40%
[7]
  cytotoxic effect: strong cytotoxic effect
[8]
  cytotoxic effect: strong cytotoxic effect
